The text below walks through data of patent publication US20190241629A1.

Data set [1] concerns the target recombinant factor B derived from Tachypleus tridentatus (Tachypleus tridentatus) (UniProt Q27081). Kind of data set: cell-based or functional assay.
Data set [2] has as its target T1, recombinant protein having proclotting enzyme activity of Limulus polyphemus (recombinant third protein).
T1 chain: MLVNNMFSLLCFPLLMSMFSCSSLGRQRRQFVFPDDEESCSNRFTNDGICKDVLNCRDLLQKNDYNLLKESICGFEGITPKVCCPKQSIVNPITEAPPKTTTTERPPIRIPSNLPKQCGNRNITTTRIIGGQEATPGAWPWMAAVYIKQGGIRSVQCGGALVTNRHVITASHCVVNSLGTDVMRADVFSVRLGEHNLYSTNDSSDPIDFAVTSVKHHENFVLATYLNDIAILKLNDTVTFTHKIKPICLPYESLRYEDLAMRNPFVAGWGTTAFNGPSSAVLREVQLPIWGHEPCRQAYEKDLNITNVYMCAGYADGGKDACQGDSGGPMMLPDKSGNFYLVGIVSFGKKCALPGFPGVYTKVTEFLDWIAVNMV

Data set [3] deals with T2, recombinant factor B derived from Tachypleus tridentatus, Q27081.
T2 chain: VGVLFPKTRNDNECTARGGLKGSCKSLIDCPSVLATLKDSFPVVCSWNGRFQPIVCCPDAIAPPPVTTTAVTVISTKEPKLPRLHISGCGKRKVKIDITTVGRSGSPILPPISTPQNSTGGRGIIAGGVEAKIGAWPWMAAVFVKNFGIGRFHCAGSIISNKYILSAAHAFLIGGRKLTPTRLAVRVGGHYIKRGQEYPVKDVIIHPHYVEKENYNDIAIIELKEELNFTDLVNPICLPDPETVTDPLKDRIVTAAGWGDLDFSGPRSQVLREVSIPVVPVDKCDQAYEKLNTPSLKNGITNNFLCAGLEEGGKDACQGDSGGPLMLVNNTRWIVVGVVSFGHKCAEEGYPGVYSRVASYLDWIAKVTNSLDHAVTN

Data set [4] deals with T3, recombinant protein having factor B activity of Limulus polyphemus (recombinant second protein).
T3 chain: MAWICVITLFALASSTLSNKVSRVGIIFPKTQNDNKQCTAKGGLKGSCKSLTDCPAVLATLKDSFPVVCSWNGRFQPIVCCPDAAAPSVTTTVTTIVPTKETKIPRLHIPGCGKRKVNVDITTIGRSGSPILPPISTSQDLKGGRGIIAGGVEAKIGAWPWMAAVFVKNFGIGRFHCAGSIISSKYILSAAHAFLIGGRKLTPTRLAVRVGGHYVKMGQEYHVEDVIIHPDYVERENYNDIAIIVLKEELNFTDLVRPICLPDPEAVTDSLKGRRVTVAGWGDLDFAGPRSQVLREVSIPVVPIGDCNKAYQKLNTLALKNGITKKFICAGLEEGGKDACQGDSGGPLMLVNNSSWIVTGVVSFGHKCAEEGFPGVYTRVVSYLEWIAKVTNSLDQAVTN

Consider “recombinant factor C derived from the genus Tachypleus (Tachypleus tridentatus) (from UniProt P28175 26-1019) (enzyme)”, for which, in data set [1], the change in the absorbance in the cascade reaction system (TFC + TFB + TPCE + Boc-LGR-pNA) at endotoxin 0 EU/mL (blank) came out at 0.51 mAbs/min and the change in the absorbance in the cascade reaction system (TFC + TFB + TPCE + Boc-LGR-pNA) at endotoxin 0.05 EU/mL was 9.15 mAbs/min.

B1: recombinant protein having factor B activity of Limulus polyphemus (recombinant second protein) (protein)
chain: MAWICVITLFALASSTLSNKVSRVGIIFPKTQNDNKQCTAKGGLKGSCKSLTDCPAVLATLKDSFPVVCSWNGRFQPIVCCPDAAAPSVTTTVTTIVPTKETKIPRLHIPGCGKRKVNVDITTIGRSGSPILPPISTSQDLKGGRGIIAGGVEAKIGAWPWMAAVFVKNFGIGRFHCAGSIISSKYILSAAHAFLIGGRKLTPTRLAVRVGGHYVKMGQEYHVEDVIIHPDYVERENYNDIAIIVLKEELNFTDLVRPICLPDPEAVTDSLKGRRVTVAGWGDLDFAGPRSQVLREVSIPVVPIGDCNKAYQKLNTLALKNGITKKFICAGLEEGGKDACQGDSGGPLMLVNNSSWIVTGVVSFGHKCAEEGFPGVYTRVVSYLEWIAKVTNSLDQAVTN
B1: the “cleavage of synthetic substrate Boc-LGR-pNA (change in absorbance A405 nm) in the cascade reaction with endotoxin (0 and 0.05 EU/mL); FC + FB + PCE” value in data set [2] is “when all the three types of recombinant proteins were included, cleavage of the synthetic substrate was observed”.

B2: recombinant factor C derived from Limulus polyphemus (recombinant first protein, protein having factor C activity) (protein)
chain: RGVDLGLCDDTRFECKCGDPGYVFNVPAKQCTYFYRWRPYCKPCDKLEAKDVCPKYKRCQECRAGLDSCVSCPPNKYGTWCSGECQCKNGGICDQRTGACTCRDRYEGVHCEILQGCPLLQSDPQVQEVKNPPNDPQTIDYSCSPGFKLKGVARITCLPNGQWSSFPPKCIRECSMVSSLEHGKVNSPSADLIEGATLRFSCDSPYYLIGQETLTCQGNGQWSGQIPQCQKLVFCPDLDPVSHAEHQVKIGLEQKYGQFPQGTEVTYTCTGNYFLMGLDTLKCNPDGSWSGTQPSCVKVADREVNCDSKAVDFLDDVGEPVRIHCPAGCSLTAGTVWGTAIYHELSSVCRAAIHAGKVPNSGGAVHVVNNGPYSDFLASDLNGIKSDELKSLAQSFRFDYVSSSTAGRKSGCPDGWFEIEENCVYVTSKQRAWERAQGVCTNMAARLAVLDKDVIPSSLTETLRGKGLATTWIGLHRLDADNHFIWELMDRSSVALNDSLTFWAPGEPGNETNCVYLDIQDQLQPVWKTKSCFQPSSFVCMMDLSDKNKAKCKDPGPLENGHAKLHGQSIDGFYAGSSVRYSCEVLHYLSGTETVSCTSNGTWSAPKPRCIKVITCQTPPVPSYGSVDIKPPSRTNSISRVGSPFLRLPRLPLPLARAAGPPPKPRSAPPSTVDLSSKVKLPEGHYRVGSQAIYTCESRYYELLGSQGRRCDSNGKWSGRPASCIPVCGRSDSPRSPFIVNGNSTEIGQWPWQAGISRWLADHNMWFLQCGGALLNEKWIITAAHCVTYSATAEIIDPSQFKFYLGKYYRDDSKDDDYVQVREAIEIHVNPNYDPGNLNFDIALIQLKTSVALTTRVQPICLPTDLTTRENLKEGALAVVTGWGLNENNTYSEMIQQAVLPVVAASTCEQGYQDSGLPLTVTENMFCAGYKQGRYDACSGDSGGPLVFADDSRTDRRWVLEGIVSWGSPNGCGKSNQYGGFTKVNVFLSWIRQFI
Consider B2, for which, in data set [3], the “activity in the cascade reaction system relative to TFC” value is recorded as “LFC showed the activity about 1.6 times (about 2.2 times when considering the difference in the protein amount) higher than TFC” and the “activity in the cascade reaction system relative to TFC, corrected for the difference in the protein amount” value was “LFC showed the activity about 1.6 times (about 2.2 times when considering the difference in the protein amount) higher than TFC”. In data set [4], the “cleavage of synthetic substrate Boc-LGR-pNA (change in absorbance A405 nm) in the cascade reaction with endotoxin (0 and 0.05 EU/mL); FC + FB + PCE” value was “when all the three types of recombinant proteins were included, cleavage of the synthetic substrate was observed”. In addition, in data set [1], the change in the absorbance in the cascade reaction system (LFC + TFB + TPCE + Boc-LGR-pNA) at endotoxin 0 EU/mL (blank) turned out to be 0.53 mAbs/min and the change in the absorbance in the cascade reaction system (LFC + TFB + TPCE + Boc-LGR-pNA) at endotoxin 0.05 EU/mL stood at 14.3 mAbs/min.
